Laboratory results taken from the supplement of paper PMC9112550, “Optimization of the antimicrobial peptide Bac7 by deep mutational scanning” (BMC Biology, 2022).

Test system: Escherichia coli TOP10
Assay: shrunken log2 fold change of peptide-encoding DNA abundance (4.5 h post-induction vs induction); higher = less antimicrobial activity (less host growth inhibition)
Conditions: time post-induction: 4.5 h; library: site-saturation at positions 5, 18, 19, 20
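Further: peptides expressed intracellularly from a pBAD plasmid library in pooled LB shake-flask culture, induced with 0.3% L-arabinose, DNA abundance read by NGS, three biological replicates, DESeq2 with apeglm shrinkage.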

| Sequence | shrunken log2 fold change |
| --- | --- |
| RRIRRRPPRLPRPRPRPSQLPRP | 0.448 |
| RRIRFRPPRLPRPRPRPPICPRP | 0.172 |
| RRIRNRPPRLPRPRPRPFSSPRP | -0.0316 |
| RRIRYRPPRLPRPRPRPDPNPRP | -0.57 |
| RRIRHRPPRLPRPRPRPRLAPRP | 0.206 |
| RRIRYRPPRLPRPRPRPGACPRP | -0.497 |
| RRIRARPPRLPRPRPRPADEPRP | 0.678 |
| RRIRGRPPRLPRPRPRPYFEPRP | -0.123 |
| RRIRPRPPRLPRPRPRPAERPRP | 0.291 |
| RRIRERPPRLPRPRPRPTITPRP | -0.598 |
| RRIRSRPPRLPRPRPRPFNLPRP | -0.218 |
| RRIRKRPPRLPRPRPRPQACPRP | -0.109 |
| RRIRYRPPRLPRPRPRPADAPRP | 0.0896 |
| RRIRSRPPRLPRPRPRPIKQPRP | -0.13 |
| RRIRGRPPRLPRPRPRPDQGPRP | 0.347 |
| RRIRDRPPRLPRPRPRPITCPRP | -0.403 |
| RRIRKRPPRLPRPRPRPQNFPRP | -0.214 |
| RRIRSRPPRLPRPRPRPRGPPRP | 0.568 |
| RRIRMRPPRLPRPRPRPRMYPRP | -0.0804 |
| RRIRKRPPRLPRPRPRPQFHPRP | 0.119 |
| RRIRRRPPRLPRPRPRPLYWPRP | 0.0153 |
| RRIRYRPPRLPRPRPRPINKPRP | -1.43 |
| RRIRWRPPRLPRPRPRPMDGPRP | 0.309 |

| Sequence | shrunken log2 fold change |
| --- | --- |
| RRIRMRPPRLPRPRPRPMWQPRP | 0.188 |
| RRIRQRPPRLPRPRPRPMWSPRP | 0.0215 |
| RRIRARPPRLPRPRPRPHCVPRP | 0.0669 |
| RRIRGRPPRLPRPRPRPLLVPRP | 0.781 |
| RRIRHRPPRLPRPRPRPYQIPRP | -0.484 |
| RRIRRRPPRLPRPRPRPASVPRP | 0.267 |
| RRIRPRPPRLPRPRPRPIDCPRP | -0.0101 |
| RRIRIRPPRLPRPRPRPWMNPRP | -0.238 |
| RRIRNRPPRLPRPRPRPLQEPRP | -0.0474 |
| RRIRGRPPRLPRPRPRPFTSPRP | -0.0475 |
| RRIRPRPPRLPRPRPRPESGPRP | 0.415 |
| RRIRPRPPRLPRPRPRPPEMPRP | 0.426 |
| RRIRHRPPRLPRPRPRPQYDPRP | -1.12 |
| RRIRNRPPRLPRPRPRPGCPPRP | -0.055 |
| RRIRDRPPRLPRPRPRPPQMPRP | 0.746 |
| RRIRLRPPRLPRPRPRPSFIPRP | -0.578 |
| RRIRWRPPRLPRPRPRPHLIPRP | 0.172 |
| RRIRYRPPRLPRPRPRPAYAPRP | -0.236 |
| RRIRYRPPRLPRPRPRPWTPPRP | -0.0576 |
| RRIRPRPPRLPRPRPRPDEVPRP | 0.188 |
| RRIRIRPPRLPRPRPRPSRYPRP | -0.759 |
| RRIRFRPPRLPRPRPRPARFPRP | 0.1 |
| RRIRLRPPRLPRPRPRPGWTPRP | 0.208 |

| Sequence | shrunken log2 fold change |
| --- | --- |
| RRIRHRPPRLPRPRPRPWRDPRP | -0.154 |
| RRIRERPPRLPRPRPRPTHHPRP | -0.0607 |
| RRIRGRPPRLPRPRPRPHSPPRP | 0.289 |
| RRIRYRPPRLPRPRPRPAMNPRP | -0.796 |
| RRIRERPPRLPRPRPRPMKFPRP | -0.0657 |
| RRIRKRPPRLPRPRPRPEGQPRP | 0.107 |
| RRIRERPPRLPRPRPRPLKVPRP | -0.0726 |
| RRIRARPPRLPRPRPRPLNDPRP | 0.0895 |
| RRIRHRPPRLPRPRPRPYRKPRP | -1.23 |
| RRIRGRPPRLPRPRPRPCQFPRP | 0.33 |
| RRIRARPPRLPRPRPRPHQSPRP | 0.265 |
| RRIRMRPPRLPRPRPRPSLTPRP | 0.806 |
| RRIRQRPPRLPRPRPRPRDWPRP | 1.63 |
| RRIRVRPPRLPRPRPRPYMEPRP | -0.16 |
| RRIRRRPPRLPRPRPRPAIIPRP | -0.115 |
| RRIRWRPPRLPRPRPRPHFGPRP | 0.168 |
| RRIRSRPPRLPRPRPRPHGNPRP | -0.00459 |
| RRIRGRPPRLPRPRPRPPQHPRP | 0.789 |
| RRIRIRPPRLPRPRPRPWYHPRP | -0.351 |
| RRIRFRPPRLPRPRPRPTACPRP | -0.118 |
| RRIRDRPPRLPRPRPRPCMTPRP | 0.33 |
| RRIRYRPPRLPRPRPRPPLWPRP | 0.277 |
| RRIRRRPPRLPRPRPRPIHCPRP | -0.0105 |

| Sequence | shrunken log2 fold change |
| --- | --- |
| RRIRHRPPRLPRPRPRPTGDPRP | 0.208 |
| RRIRLRPPRLPRPRPRPAKLPRP | -0.0675 |
| RRIRSRPPRLPRPRPRPIMHPRP | -0.455 |
| RRIRSRPPRLPRPRPRPKMEPRP | -0.0294 |
| RRIRWRPPRLPRPRPRPATKPRP | 0.273 |
| RRIRERPPRLPRPRPRPDFKPRP | 0.0659 |
| RRIRQRPPRLPRPRPRPKQAPRP | 0.0135 |
| RRIRSRPPRLPRPRPRPPWHPRP | 0.0809 |
| RRIRDRPPRLPRPRPRPLCIPRP | 0.162 |
| RRIRHRPPRLPRPRPRPAGHPRP | -0.0991 |
| RRIRCRPPRLPRPRPRPGGEPRP | 0.538 |
| RRIRYRPPRLPRPRPRPWGHPRP | -0.275 |
| RRIRSRPPRLPRPRPRPKRHPRP | 0.169 |
| RRIRERPPRLPRPRPRPDQGPRP | 0.0476 |
| RRIRSRPPRLPRPRPRPFLEPRP | -0.248 |
| RRIRWRPPRLPRPRPRPSMKPRP | -0.199 |
| RRIRWRPPRLPRPRPRPHEGPRP | -0.102 |
| RRIRGRPPRLPRPRPRPIAFPRP | 0.8 |
| RRIRRRPPRLPRPRPRPDQYPRP | -0.126 |
| RRIRQRPPRLPRPRPRPPRDPRP | 1.25 |
| RRIRIRPPRLPRPRPRPYPWPRP | -1.06 |
| RRIRVRPPRLPRPRPRPNKGPRP | -0.47 |
